Source: patent publication US10689423B2, “CTLA4-binding protein peptide-linker masks” (City of Hope, priority 2015, dated 2020)

B1: Unmasked mLcn2-Fc: masked mLcn2-Fc treated with MMP9, mask released (protein)
chain: QDSTSDLIPAPPLSKVPLQQNFQDNQFHGKWYVVGLAGNRILRDDQHPMNMYATIYELKEDKSYNVTSVISSHKKCEYTIATFVPGSQPGEFTLGNIKSYGDKTSYLVRVVSTDYNQYAVVFFKLAEDNAEFFAITIYGRTKELASELKENFIRFSKSLGLPENHIVFPVPIDQCIDG
modifications: left off: small tags and cut ends; a dimerising Fc or GST
notes: masked mLcn2-Fc treated with MMP9, mask released
B2: mLCN2: modified lipocalin2 used as a CTLA-4 antagonist, SEQ ID NO:34 (protein, listed as Homo sapiens)
chain: B1 chain
B3: mLcn2-Fc: mLcn2 fused to IgG1 Fc without a mask fused to the N-terminus (positive control) (protein)
chain: B1 chain
modifications: left off: a dimerising Fc or GST

What was measured:
[1] = tested on: CD4/CD8 negative cells in the spleen; experiment: In vivo binding of mLcn2 constructs in the spleen; set-up: species or system mice; details: not shown; potentially due to FcR binding
Method: (§1) FIG. 9: Biodistribution of mLcn2-Fc constructs in vivo. (A-C) Naïve mice were injected i.v. with 100 μg of indicated mLcn2-Fc construct and tissue samples were collected 48 hr. post-dose. Cryosections were stained for CD4 or CD8 (medium gray) and human IgG (light gray) from the thymus (A), spleen (B), and pituitary gland (C, IgG only). (D) Melanoma-bearing mice were injected as above and tumor samples were collected 72 hr. post-dose. 4′,6-diamidino-2-phenylindole (DAPI) nuclear staining shown in dark gray.
FIG. 16: Naïve mice were injected i.v. with 100 μg of indicated mtLCN2-Fc construct and tissue samples were collected 48 hr. post-dose. Cryosections were stained for CD4 or CD8 (medium gray) and human IgG (light gray) from the spleen.
(§2) In these experiments constructs were injected i.v. into C57/B16 mice bearing B16 melanomas. Three days after injection, tumor and tissue samples were collected and doublestained using antibodies recognizing either CD4 or CD8 and mLcn2 (e.g. human IgG-Fc). Membranes of both intratumoral CD4+ and CD8+ T cells were decorated with mLcn2 which was not detected on other cell types.

CTLA-4 = experiment: Size-exclusion chromatography analysis of CTLA-4 binding to mLcn2-Fc constructs
pituicytes = experiment: In vivo binding of mLcn2 variants to cells within the pituitary gland; details: naïve mice, i.v. 100 μg, 48 hr post-dose, human IgG staining
Method: FIG. 5: Binding of CTLA-4 antagonist mLcn2 variants to cells within the pituitary gland.
as §1
FIG. 18: Naïve mice were injected i.v. with 100 μg of indicated mLcn2-Fc construct and tissue samples were collected 48 hr. post-dose. Cryosections were stained for human IgG (light gray).
as §2

[2] = tested on: human CTLA4-Fc on Tni insect cells; experiment: Flow cytometry of Tni insect cells transiently expressing human CTLA4-Fc; type: cell-based; details: Alexa Fluor-647 conjugated variants
Excerpt: FIG. 10C: Flow cytometry analysis of Tni insect cells induced to transiently express human CTLA4-Fc. Cells were stained with Alexa Fluor-647 conjugated mLcn2-Fc variants and gated for Forward scatter/Side scatter, DAPI^−, singlet size (pulse width), and APC. Uninfected cells stained with mLcn2-Fc are shown in grey as a negative control.

[3] = tested on: tumor-infiltrating lymphocytes (TILs) in B16 tumor tissues; experiment: In vivo detection of mLcn2 variants in B16 tumor tissues (IHC); details: i.v. 100 μg, melanoma-bearing mice, tumor samples 72 hr post-dose; listed as unmasked (MMP9-pretreated) mLcn2
Method: FIG. 4: In vivo detection of mLcn2 variants (CTLA-4 binding protein variants) in B16 tumor tissues.
as §1
FIG. 17: Melanoma-bearing mice were injected i.v. with 100 μg of indicated mLcn2-Fc construct and tumor samples were collected 72 hr. post-dose. Cryosections were stained for CD4 or CD8 (medium gray) and human IgG (light gray). […] 4′,6-diamidino-2-phenylindole (DAPI) nuclear staining shown in dark gray.
as §2

CTLA-4-Fc = experiment: SPR kinetics of monomeric mLCN2 and dimeric mLCN2-Fc on immobilized CTLA-4-Fc; type: binding; details: dimeric CTLA-4-Fc immobilized at medium density on CM5 chip
Method: FIG. 10A: SPR analysis. Dimeric CTLA-4-Fc was immobilized at medium density to a CM5 chip. A range of 3-1000 nM monomeric mLCN2 (top) and 3-300 nM dimeric mLCN2-Fc (bottom) analytes were used for kinetics analyses. […] Concentration of analytes is 1000; 300; 30; and 3 nM.

[4] = tested on: murine, primate and human CTLA-4; experiment: CTLA-4 species cross-reactivity of mLcn2; type: binding

Chain of CTLA-4-Fc (P16410 36-161 limits assumed): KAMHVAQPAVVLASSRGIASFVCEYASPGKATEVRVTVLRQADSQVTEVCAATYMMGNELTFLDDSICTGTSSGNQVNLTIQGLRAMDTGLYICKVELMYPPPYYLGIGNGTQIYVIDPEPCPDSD
Chain of human CTLA4-Fc on Tni insect cells (P16410 36-161 limits assumed): as above
Chain of CTLA-4 (P16410 36-161 limits assumed): as above

Molecule | binding in the spleen [1] | CTLA-4 binding by SEC (CTLA-4; FIG. 3B) | SEC elution volume of construct incubated with CTLA-4 (CTLA-4; Superdex 200, apo CTLA-4 13.0 mL, apo constructs ~12.7 mL) [mL] | binding to pituitary gland cells (pituicytes) | binding to CTLA4-Fc expressing Tni cells [2] | staining of CD4 or CD8 TILs in tumor [3] | ka (CTLA-4-Fc) | kd (CTLA-4-Fc) | CTLA-4 binding across species [4]
B1 | bound to CD4/CD8 negative cells in the spleen | binding of CTLA-4 only to unmasked mLcn2-Fc constructs | 11.3 | bound equally well to pituicytes | showed binding to cells | membrane staining of tumor-infiltrating lymphocytes (TILs) | – | – | –
B2 | – | – | – | reactivity with non-immune cells in the pituitary glands | – | – | 3.6 E4 M^−1 s^−1 | 2.0 E-4 s^−1 | binds to murine, primate and human CTLA-4
B3 | – | – | – | bound equally well to pituicytes | showed binding to cells | – | 1.0 E4 M^−1 s^−1 | could not be determined as it was beyond the limitations of the instrument | –
